Test results from the supplement of paper PMC9112550, “Optimization of the antimicrobial peptide Bac7 by deep mutational scanning” (BMC Biology, 2022).

System: Escherichia coli TOP10
Assay: shrunken log2 fold change of peptide-encoding DNA abundance (4.5 h post-induction vs induction); higher = less antimicrobial activity (less host growth inhibition)
Conditions: time post-induction: 4.5 h; library: site-saturation at positions 5, 18, 19, 20
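Also: peptides expressed intracellularly from a pBAD plasmid library in pooled LB shake-flask culture, induced with 0.3% L-arabinose, DNA abundance read by NGS, three biological replicates, DESeq2 with apeglm shrinkage.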

| Sequence | shrunken log2 fold change |
| --- | --- |
| RRIRYRPPRLPRPRPRPAPLPRP | -0.0323 |
| RRIRYRPPRLPRPRPRPDNYPRP | -0.175 |
| RRIRTRPPRLPRPRPRPGFHPRP | -0.19 |
| RRIRIRPPRLPRPRPRPTKSPRP | -0.141 |
| RRIRNRPPRLPRPRPRPHPNPRP | 0.0207 |
| RRIRHRPPRLPRPRPRPPCEPRP | 0.00703 |
| RRIRERPPRLPRPRPRPEGVPRP | 0.172 |
| RRIRFRPPRLPRPRPRPKDYPRP | -0.788 |
| RRIRARPPRLPRPRPRPWHWPRP | 0.209 |
| RRIRCRPPRLPRPRPRPNSQPRP | -0.47 |
| RRIRMRPPRLPRPRPRPWKKPRP | 0.234 |
| RRIRSRPPRLPRPRPRPKQIPRP | 0.0712 |
| RRIRYRPPRLPRPRPRPQIQPRP | -0.473 |
| RRIRYRPPRLPRPRPRPLTAPRP | -0.492 |
| RRIRLRPPRLPRPRPRPQKWPRP | 2.37 |
| RRIRGRPPRLPRPRPRPQINPRP | 0.324 |
| RRIRSRPPRLPRPRPRPVKPPRP | 0.132 |
| RRIRDRPPRLPRPRPRPYLYPRP | -0.0408 |
| RRIRLRPPRLPRPRPRPLNSPRP | -0.389 |
| RRIRFRPPRLPRPRPRPSCIPRP | -0.603 |
| RRIRARPPRLPRPRPRPNHTPRP | -0.605 |
| RRIRDRPPRLPRPRPRPGPFPRP | 0.174 |
| RRIRVRPPRLPRPRPRPTCDPRP | -0.156 |
| RRIRSRPPRLPRPRPRPRQTPRP | 0.0651 |
| RRIRWRPPRLPRPRPRPRSRPRP | 0.385 |

| Sequence | shrunken log2 fold change |
| --- | --- |
| RRIRRRPPRLPRPRPRPTDWPRP | 0.414 |
| RRIRMRPPRLPRPRPRPHVVPRP | -0.0448 |
| RRIRWRPPRLPRPRPRPVDRPRP | -0.0331 |
| RRIRMRPPRLPRPRPRPWENPRP | -0.0294 |
| RRIRDRPPRLPRPRPRPQDLPRP | 0.0112 |
| RRIRSRPPRLPRPRPRPVSMPRP | 0.0888 |
| RRIRLRPPRLPRPRPRPKLEPRP | -0.354 |
| RRIRGRPPRLPRPRPRPVGSPRP | 0.749 |
| RRIRIRPPRLPRPRPRPPSQPRP | 0.258 |
| RRIRIRPPRLPRPRPRPWCCPRP | -0.481 |
| RRIRQRPPRLPRPRPRPRTVPRP | 0.349 |
| RRIRGRPPRLPRPRPRPMSHPRP | 0.225 |
| RRIRYRPPRLPRPRPRPVVWPRP | -0.00976 |
| RRIRNRPPRLPRPRPRPKSHPRP | -0.253 |
| RRIRGRPPRLPRPRPRPMSCPRP | 0.364 |
| RRIRRRPPRLPRPRPRPSVDPRP | 0.168 |
| RRIRDRPPRLPRPRPRPAVDPRP | -0.0491 |
| RRIRMRPPRLPRPRPRPIDTPRP | 0.0143 |
| RRIRFRPPRLPRPRPRPRNLPRP | -0.016 |
| RRIRGRPPRLPRPRPRPMVNPRP | 0.744 |
| RRIRHRPPRLPRPRPRPSSLPRP | -0.153 |
| RRIRQRPPRLPRPRPRPKDLPRP | -0.0616 |
| RRIRLRPPRLPRPRPRPSQLPRP | -0.282 |
| RRIRMRPPRLPRPRPRPLWNPRP | -0.182 |
| RRIRHRPPRLPRPRPRPKCSPRP | -0.0294 |

| Sequence | shrunken log2 fold change |
| --- | --- |
| RRIRHRPPRLPRPRPRPTYEPRP | 0.15 |
| RRIRHRPPRLPRPRPRPGPQPRP | 0.0368 |
| RRIRERPPRLPRPRPRPNCDPRP | -0.261 |
| RRIRSRPPRLPRPRPRPPKEPRP | 1.07 |
| RRIRMRPPRLPRPRPRPWNTPRP | 0.000609 |
| RRIRIRPPRLPRPRPRPEDEPRP | 0.0112 |
| RRIRERPPRLPRPRPRPGPDPRP | -0.118 |
| RRIRKRPPRLPRPRPRPKPDPRP | 0.861 |
| RRIRCRPPRLPRPRPRPPICPRP | -0.248 |
| RRIRERPPRLPRPRPRPRWGPRP | 0.239 |
| RRIRARPPRLPRPRPRPELNPRP | 0.746 |
| RRIRGRPPRLPRPRPRPNTYPRP | 0.106 |
| RRIRRRPPRLPRPRPRPVHMPRP | 2.19 |
| RRIRKRPPRLPRPRPRPASQPRP | 0.0905 |
| RRIRMRPPRLPRPRPRPPDSPRP | 0.198 |
| RRIRFRPPRLPRPRPRPHPSPRP | -0.107 |
| RRIRKRPPRLPRPRPRPDHKPRP | -0.0248 |
| RRIRIRPPRLPRPRPRPGLVPRP | 0.0385 |
| RRIRGRPPRLPRPRPRPYWHPRP | -0.627 |
| RRIRCRPPRLPRPRPRPDAYPRP | -0.177 |
| RRIRERPPRLPRPRPRPPADPRP | 0.152 |
| RRIRVRPPRLPRPRPRPYKEPRP | 0.0231 |
| RRIRKRPPRLPRPRPRPHQPPRP | 0.413 |
| RRIRNRPPRLPRPRPRPYAWPRP | -0.141 |
| RRIRIRPPRLPRPRPRPMMTPRP | -0.115 |

| Sequence | shrunken log2 fold change |
| --- | --- |
| RRIRIRPPRLPRPRPRPDFGPRP | -0.196 |
| RRIRARPPRLPRPRPRPSSEPRP | 0.271 |
| RRIRMRPPRLPRPRPRPYYTPRP | 0.0968 |
| RRIRWRPPRLPRPRPRPLIPPRP | -0.327 |
| RRIRLRPPRLPRPRPRPLLCPRP | -0.0707 |
| RRIRCRPPRLPRPRPRPIWYPRP | -0.564 |
| RRIRTRPPRLPRPRPRPHGRPRP | 0.0169 |
| RRIRFRPPRLPRPRPRPQTAPRP | -0.337 |
| RRIRKRPPRLPRPRPRPNREPRP | 0.0158 |
| RRIRPRPPRLPRPRPRPKEDPRP | 0.176 |
| RRIRYRPPRLPRPRPRPETHPRP | -0.863 |
| RRIRCRPPRLPRPRPRPSTCPRP | -0.355 |
| RRIRCRPPRLPRPRPRPPLAPRP | 0.79 |
| RRIRVRPPRLPRPRPRPNIGPRP | -0.0964 |
| RRIRGRPPRLPRPRPRPMPPPRP | 1.23 |
| RRIRTRPPRLPRPRPRPKLLPRP | 0.272 |
| RRIRDRPPRLPRPRPRPTVGPRP | 0.351 |
| RRIRNRPPRLPRPRPRPGWEPRP | 1.72 |
| RRIRRRPPRLPRPRPRPHQAPRP | -0.019 |
| RRIRLRPPRLPRPRPRPDHGPRP | -0.147 |
| RRIRPRPPRLPRPRPRPNKHPRP | -0.374 |
| RRIRHRPPRLPRPRPRPDTKPRP | 0.162 |
| RRIRHRPPRLPRPRPRPVMDPRP | 0.153 |
| RRIRTRPPRLPRPRPRPYMHPRP | -0.685 |
| RRIRPRPPRLPRPRPRPMCCPRP | -0.0731 |

| Sequence | shrunken log2 fold change |
| --- | --- |
| RRIRMRPPRLPRPRPRPVWLPRP | 3.04 |
| RRIRQRPPRLPRPRPRPKFEPRP | -0.0683 |
| RRIRSRPPRLPRPRPRPGVVPRP | 0.295 |
| RRIRWRPPRLPRPRPRPMMPPRP | 0.0187 |
| RRIRHRPPRLPRPRPRPRCPPRP | 0.169 |
| RRIRVRPPRLPRPRPRPFEKPRP | -0.00236 |
| RRIRERPPRLPRPRPRPWLWPRP | 0.239 |
| RRIRMRPPRLPRPRPRPPSMPRP | 0.761 |
| RRIRTRPPRLPRPRPRPMGMPRP | -0.12 |
| RRIRLRPPRLPRPRPRPFFQPRP | 0.152 |
| RRIRFRPPRLPRPRPRPDWWPRP | -0.0896 |
| RRIRDRPPRLPRPRPRPGSTPRP | 0.637 |
| RRIRDRPPRLPRPRPRPNEWPRP | -0.00174 |
| RRIRRRPPRLPRPRPRPVTQPRP | 0.197 |
| RRIRIRPPRLPRPRPRPAENPRP | -0.0424 |
| RRIRYRPPRLPRPRPRPSREPRP | -0.0635 |
| RRIRMRPPRLPRPRPRPKSEPRP | 0.0246 |
| RRIRRRPPRLPRPRPRPSCPPRP | 0.941 |
| RRIRPRPPRLPRPRPRPRWMPRP | 0.412 |
| RRIRVRPPRLPRPRPRPWHLPRP | -0.191 |
| RRIRTRPPRLPRPRPRPDYSPRP | -0.0445 |
| RRIRERPPRLPRPRPRPVKLPRP | -0.0426 |
| RRIRTRPPRLPRPRPRPVDVPRP | -0.236 |
| RRIRSRPPRLPRPRPRPAAEPRP | 0.466 |
| RRIRRRPPRLPRPRPRPSFKPRP | -0.117 |
